Experimental data from article PMC6904456.

Assays:
Thrombin (THR) [1] = biological target: T1, Thrombin (THR) (UniProt P00734;P00734 328-363;364-622); assay: SPR (D-shaped plastic optical fibre); 1-50 nM thrombin, no shift of resonance wavelength; Immobilization in 10 mM phosphate, 138 mM NaCl, 2.7 mM KCl, pH 7.4; sensing in binding buffer (composition and temperature not given in material)
Thrombin (THR) [2] = biological target: T1, Thrombin (THR); assay: SPR (D-shaped plastic optical fibre, Langmuir fit); 10 uM aptamer for immobilization; Langmuir K, printed as K [nM]; Immobilization in 10 mM phosphate, 138 mM NaCl, 2.7 mM KCl, pH 7.4; sensing in binding buffer (composition and temperature not given in material)

Binder	binding result (Thrombin (THR) [1])	Kd (Thrombin (THR) [2])
CACCAATATTTACGTTCTACTCTCCAATA (ssDNA, 5' BiotinTEG) [non specific aptamer sequence]	no binding	–
AGTCCGTGGTAGGGCAGGTTGGGGTGACT (ssDNA, 5' BiotinTEG) [TBA29 (biotin-TBA29 thrombin aptamer)]	–	21.8 nM
